The target of the data set is CbAgo (Clostridium butyricum, UniProt P0DYD1 1-748). Nature of the data set: single-molecule TIRM, immobilized CbAgo.

As to CCATCTGTCTTA (ssDNA, 5'-phosphate) [siDNA 12 nt (SM013)], the binding result is “binds”.

(Values after paper PMC6582352.)
